From US5567433A, “Liposome preparation and material encapsulation method” (Amgen Inc., priority 1995, dated 1996)

Legend:
[1] = In vivo release after subcutaneous injection into rats; parameters: species or system Sprague-Dawley rats; conditions: either liposome composition
Protocol: Liposomes composed of either DPPC or DMPG:DSPC:CHOL (1:4:5 molar) were prepared substantially in accordance with Method 4, above, to contain either ^125 I-tyraminyl inulin (at a final specific activity of 0.4×10^6 dpm/ml) or ^125 I-rhG-CSF (at a final specific activity of 1×10^6 dpm/ml). (See: ^125 I-labeled Inulin: A convenient marker for deposition of liposome contents in vivo. Sommerman, E. F., Pritchard, P. H. and Cullis, P. R. Biochem Biophys Res Coramerc Vol. 122(1), 319-324; 1984.) The final lipid composition was 30 mM. The injection site was marked. At various times after injection, the rats were sacrificed and the injection site was excised and counted for remaining ^125 I. Percent release was defined as %Release=100(1-DPMt /DPMo), where DPMt is the dpm remaining at the site at time t, and DPMo is the initial dpm injected (t=0).

[2] = system: G-CSF; assay: Reverse phase HPLC of encapsulated G-CSF; format: physicochemical, human; conditions: C4 reverse phase HPLC
Description: Biologically active material encapsulated in accordance with Method 4, above, was also subjected to reverse phase high pressure liquid chromatography (HPLC) to determine whether liposome-encapsulation led to structural changes in the encapsulated material. For example, G-CSF alone or encapsulated in DMPG:DSPC:CHOL (1:4:5) liposomes was examined by C4 reverse phase HPLC under the following conditions:
Buffer A: 0.1% trifluoroacetic acid in water
Buffer B: 0.1% trifluoroacetic acid in 90% acetonitrile
Gradient: 0-90% B in 60 minutes
Flow rate: 0.8 milliliter/minute
Detection: 220 nanometers
Thirty micrograms of G-CSF was loaded per run. Liposomes were lysed in 40% methanol for 30 minutes at 37° C. prior to chromatography.

[3] = Encapsulation of various protein therapeutics and oligonucleotides using Method 4; format: physicochemical; conditions: up to; present invention
Protocol: Lipid films, prepared as described in Method 1, were hydrated in water and sonicated. The sonicated dispersions were then subjected to 3-5 cycles of freezing (dry ice/acetone) and thawing (37° C). The dispersions were freeze dried and ground as in Method 2 to form a lipid powder. The powder was subsequently hydrated in G-CSF, and the liposome-encapsulated material was microfluidized as described in Method 1. Unencapsulated G-CSF was separated from encapsulated G-CSF as described in Method 2.
The lipid samples were prepared, sonicated and subjected to freeze/thaw cycles as described in Method 3. Prior to dehydrating the sample, D-mannitol was added (1:1 weight ratio to lipid) as a bulking agent. The samples were freeze-dried and rehydrated, upon use, as described in Method 3. Hydration and microfluidization was carried out as described in Method 1. The samples were then dialyzed as described in Method 2.

| Molecule | leakage of inulin or G-CSF [1] | material destruction or aggregation upon encapsulation [2] | structural integrity of G-CSF released from liposomes ([2]; liposomes lysed in 40% methanol) | Recovery ([2]; 30 μg G-CSF injected) [%] | Encapsulation of input [3] |
| --- | --- | --- | --- | --- | --- |
| inulin [reference compound] | No significant difference |  |  |  |  |
| G-CSF: recombinant human granulocyte colony stimulating factor (protein, UniProt P09919 31-207, looked up) Granulocyte …: TPLGPASSLPQSFLLKCLEQVRKIQGDGAALQEKLVSECATYKLCHPEELVLLGHSLGIPWAPLSSCPSQALQLAGCLSQLHSGLFLYQGLLQALEGISPELGPTLDTLQLDVADFATTIWQQMEELGMAPALQPTQGAMPAFASAFQRRAGGVLVASHLQSFLEVSYRVLRHLAQP | No significant difference | no material destruction or aggregation | structurally identical to G-CSF which was never encapsulated | 100 | 80-90% |
